In general, stoichiometry N refers to a count of units in the complex or per binding partner.

Data on one molecule can be found in paper PMC4740771, “Nucleotide-dependent assembly of the peroxisomal receptor export complex” (Scientific Reports, 2016).

Common to all, as to details: both partners purified
Experiment [1] deals with T1, HisPex1p(E798Q) released from its GST fusion (S. cerevisiae, UniProt P24004 1-1043, E798Q).
T1 construct: Pex1p of yeast with a Walker B mutation of the D2 domain; also called Pex1WB^E798Q; Pex1pWB; not shown: His6, N-terminal, kept; GST, C-terminal, cleaved
T1 sequence (looked up): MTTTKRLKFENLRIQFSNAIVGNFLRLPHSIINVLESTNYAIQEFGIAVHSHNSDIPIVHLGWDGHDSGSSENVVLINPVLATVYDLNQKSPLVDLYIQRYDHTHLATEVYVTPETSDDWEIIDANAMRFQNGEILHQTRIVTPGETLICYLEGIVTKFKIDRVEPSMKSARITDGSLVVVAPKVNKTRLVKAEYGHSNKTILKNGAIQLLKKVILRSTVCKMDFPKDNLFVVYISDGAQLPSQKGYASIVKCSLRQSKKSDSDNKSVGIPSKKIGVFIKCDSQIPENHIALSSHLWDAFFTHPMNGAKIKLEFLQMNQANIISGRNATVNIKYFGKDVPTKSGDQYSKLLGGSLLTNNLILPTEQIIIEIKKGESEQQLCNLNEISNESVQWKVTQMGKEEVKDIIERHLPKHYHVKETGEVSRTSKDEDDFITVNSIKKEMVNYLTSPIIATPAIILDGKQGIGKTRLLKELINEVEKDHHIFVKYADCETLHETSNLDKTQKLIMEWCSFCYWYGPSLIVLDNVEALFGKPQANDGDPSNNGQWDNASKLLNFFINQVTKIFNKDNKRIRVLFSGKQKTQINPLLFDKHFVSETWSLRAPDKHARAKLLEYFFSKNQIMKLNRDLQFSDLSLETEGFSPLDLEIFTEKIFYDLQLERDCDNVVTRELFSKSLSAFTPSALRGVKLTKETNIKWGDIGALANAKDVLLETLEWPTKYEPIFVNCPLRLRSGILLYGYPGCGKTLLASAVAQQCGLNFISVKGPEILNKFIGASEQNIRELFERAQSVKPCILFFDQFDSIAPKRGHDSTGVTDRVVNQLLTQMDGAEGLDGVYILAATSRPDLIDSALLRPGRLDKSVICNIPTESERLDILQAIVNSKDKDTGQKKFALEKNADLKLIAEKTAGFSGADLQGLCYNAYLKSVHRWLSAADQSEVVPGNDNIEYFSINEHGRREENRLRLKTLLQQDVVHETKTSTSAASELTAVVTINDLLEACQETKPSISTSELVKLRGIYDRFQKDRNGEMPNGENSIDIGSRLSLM
Kind of experiment: SEC; second gel filtration of the purified heterohexameric complexes after incubation at 37 °C. (In general: Size exclusion chromatography separates by hydrodynamic size, large species first.)

Experiment [2] concerns the target T2, Pex15p(1-315)His (GST removed by thrombin) (S. cerevisiae, UniProt Q08215 1-315).
T2 construct: Pex15p of S. cerevisiae, cytosolic part, residues 1 to 315; Same construct as m10 after thrombin cleavage; detected by anti-His antibodies; Printed mass 36 kDa; alone it eluted at about 100 kDa; also called Pex15pHis; source: E. coli BL21 (DE3), purified (Glutathione Agarose 4B), released from GSH-agarose by thrombin; not shown: GST, N-terminal, cleaved; His6, C-terminal, kept
T2 sequence (looked up): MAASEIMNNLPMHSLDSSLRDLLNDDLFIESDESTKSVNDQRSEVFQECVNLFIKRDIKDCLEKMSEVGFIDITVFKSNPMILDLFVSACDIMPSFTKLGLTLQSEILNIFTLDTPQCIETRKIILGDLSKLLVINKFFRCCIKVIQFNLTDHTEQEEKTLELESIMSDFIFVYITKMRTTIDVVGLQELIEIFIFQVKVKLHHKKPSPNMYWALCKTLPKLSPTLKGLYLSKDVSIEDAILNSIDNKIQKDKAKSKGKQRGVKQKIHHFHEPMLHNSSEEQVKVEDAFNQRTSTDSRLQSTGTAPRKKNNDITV
Kind of experiment: SEC; Pex1/6p/Pex15p complex isolated on GSH-agarose, released by thrombin (GST left on the column), Superose 6 (small-scale and preparative) in presence of ATP; anti-His immunoblot or Coomassie, signal intensities by ImageJ.

The target of experiment [3] is T3, HisPex1p released from HisPex1pGST by thrombin (S. cerevisiae, UniProt P24004 1-1043).
T3 construct: Pex1p, type II AAA-ATPase peroxin of yeast; The GST tag held the complex on GSH-agarose during purification and stayed on the column after thrombin cleavage; source: E. coli Tuner (DE3), co-purified with HisPex6p (NiNTA-agarose, GSH-agarose, thrombin release); not shown: His6, N-terminal, kept; GST, C-terminal, cleaved
T3 sequence (looked up): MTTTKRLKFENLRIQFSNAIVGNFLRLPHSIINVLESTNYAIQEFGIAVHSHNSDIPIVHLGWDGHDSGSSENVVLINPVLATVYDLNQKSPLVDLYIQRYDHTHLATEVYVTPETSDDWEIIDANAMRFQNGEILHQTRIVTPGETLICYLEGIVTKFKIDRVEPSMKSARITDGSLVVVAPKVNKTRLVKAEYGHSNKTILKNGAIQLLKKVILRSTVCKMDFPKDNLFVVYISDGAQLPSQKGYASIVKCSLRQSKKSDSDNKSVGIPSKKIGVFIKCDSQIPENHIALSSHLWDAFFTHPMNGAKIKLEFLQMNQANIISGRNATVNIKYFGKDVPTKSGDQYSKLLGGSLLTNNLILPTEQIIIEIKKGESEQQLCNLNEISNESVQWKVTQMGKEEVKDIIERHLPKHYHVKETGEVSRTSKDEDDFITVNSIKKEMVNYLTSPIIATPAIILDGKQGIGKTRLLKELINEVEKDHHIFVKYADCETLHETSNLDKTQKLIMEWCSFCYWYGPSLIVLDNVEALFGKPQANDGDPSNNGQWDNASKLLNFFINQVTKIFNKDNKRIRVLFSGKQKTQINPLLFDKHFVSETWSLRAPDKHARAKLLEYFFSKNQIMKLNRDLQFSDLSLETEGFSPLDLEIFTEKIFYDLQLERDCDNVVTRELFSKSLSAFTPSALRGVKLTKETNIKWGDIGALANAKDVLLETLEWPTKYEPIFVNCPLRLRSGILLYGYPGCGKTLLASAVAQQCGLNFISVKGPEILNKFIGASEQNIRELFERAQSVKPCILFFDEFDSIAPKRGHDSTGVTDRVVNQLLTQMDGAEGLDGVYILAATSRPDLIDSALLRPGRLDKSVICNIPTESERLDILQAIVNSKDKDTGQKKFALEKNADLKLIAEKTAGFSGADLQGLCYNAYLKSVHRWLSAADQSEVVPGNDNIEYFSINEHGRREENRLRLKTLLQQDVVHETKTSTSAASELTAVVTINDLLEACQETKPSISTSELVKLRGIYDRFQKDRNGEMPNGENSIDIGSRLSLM
The description is as above.

B1: HisPex6p (natural protein, S. cerevisiae, UniProt P33760 1-1030, looked up)
chain: MKASLTFSLSGIYAPCSISRDIYLEYGDKKAECLYGTIRLPQYGPGCTPGKIVHCVLDDSLPFCSIVVPSKLFGFMPTQPTMDFCYFEPILDNVVPVLDSVTFLINEQLYSKLMDLPQEMQQIQFLHYKYNINSMETVVHSRDILTSGLCQILNCSPFPQGLVDFTETQLILVNDTEQKLSALKYANEDEEYALPKIGTNSALSIDLESLPCTISRDLLRPAPHINDDNSIYAFTDAETLLRLDVTSGSFITVSNMGCVRLVKLFVLLLPNGFKKRTIYAPPKIIASFPDCSVVTISKSNIGHTDIPIANQVFISRVGGWLQSQKCFQNIILTTLKKFFSESKRILCQNDLIPIAFDSSMADLNIAEENDESDDEDELGQYYKNDSLVWFFVTSAELDCFSKDNSHFIIDPNRTKLITTNITNRRPLPLSRSNLQRYYGFAETFYYDLHIFPYVRQLVNILETSFNCSQRGITLNASVLLHSTTNNVGKATMVRFASKYLGIHLLEIDCLSLTSNSRQLDSTSKIIGYIRAKCENVLPYASPAVIFLAHLDSILLDVNANQDPEAIKLQKSINFEMSKLLDDFTFKFPGTTFVGSVNNIDNVPSSFRSHMRFEILVPVPSEAQRLRIFQWYLSSHELNRDVQQKVPVSYMDNISFSSLSSYSAGLTPLDIKSIVETARMTATARFYQESKKCGWLPQSILITQEDLSKATSKARNEFSVSIGAPQIPNVTWDDIGGIDFVKGEILDTIDMPLKHPELFTSGMKKRSGILFYGPPGTGKTLMAKAIATNFSLNFFSVKGPELLNMYIGESEANVRRVFQKAREAKPCVIFFDEIDSVAPKRGNQGDSGGVMDRIVSQLLAELDGMSTDADGVFVIGATNRPDLLDEALLRPGRFDKLLYLGIPDTDTKQLNILEALTRKFVLDNDVKLIELAKLCPFNYTGADFYALCSDAMLNAMSRIARMVEKKVSQHNELTGENISTRRWFDKIATKEDTKVVVKMEDFLKAQEQLTPSVSRAELNHYEAVRANFEGA
notes: Pex6p, type II AAA-ATPase peroxin of yeast; also called single Pex6p; isolated Pex6p; source: E. coli Tuner (DE3), purified (NiNTA-agarose; with HisPex1pGST also GSH-agarose and size exclusion); not shown: His6, N-terminal, kept
With B1, in experiment [1], the binding result is “binds”. Also, the “stoichiometry N” value in experiment [2] was 1 Pex15p per Pex6p; in experiment [3], 0.9 Pex6p per Pex1p.
